Experimental data as given in patent publication US20230192896A1 (published 2023).
Where a chain is given by its changes, count along the chain named. One block for each binder: values may come before it.

Target: T1, FX zymogen (UniProt P00742 41-179; P00742 183-488)
T1 chain 1: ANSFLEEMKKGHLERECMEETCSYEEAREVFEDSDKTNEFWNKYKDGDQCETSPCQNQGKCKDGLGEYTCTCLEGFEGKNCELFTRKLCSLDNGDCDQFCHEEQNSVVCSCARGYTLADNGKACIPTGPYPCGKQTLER
T1 chain 2: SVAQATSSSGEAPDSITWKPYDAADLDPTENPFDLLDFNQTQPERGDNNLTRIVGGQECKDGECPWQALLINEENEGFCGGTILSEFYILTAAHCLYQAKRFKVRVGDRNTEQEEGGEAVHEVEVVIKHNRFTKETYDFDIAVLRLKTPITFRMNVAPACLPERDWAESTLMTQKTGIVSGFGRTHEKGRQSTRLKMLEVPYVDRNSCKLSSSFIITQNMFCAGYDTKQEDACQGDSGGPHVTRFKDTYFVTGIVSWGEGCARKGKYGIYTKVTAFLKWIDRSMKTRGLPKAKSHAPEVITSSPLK
Assay: BLI

- Kd: 65.5 nM
B2: BIIB-12-1292 (antibody, V domains shown)
VH: QVQLVQSGAEVKKPGASVKVSCKASGYTFTSYYIHWVRQAPGQGLEWMGIINPSGGSTSYAQKFQGRVTMTRDTSTSTVYMELSSLRSEDTAVYYCARDPGRRQSSGFDYWGQGTLVTVSS
VL: EIVMTQSPATLSLSPGERATLSCRASQSVSSYLAWYQQKPGQAPRLLIYDSSNRATGIPARFSGSGSGTDFTLTISSLEPEDFAVYYCQQRLNFPFTFGGGTKVEIK

- Kd: 56.1 nM
B3: BIIB-12-1318 (antibody, V domains shown)
VH: QVQLVESGGGVVQPGRSLRLSCAASGFTFSSYGMHWVRQAPGKGLEWVAVISYDGSNKYYADSVKGRFTISRDNSKNTLYLQMNSLRAEDTAVYYCARKGDYRSGSYSGRAFGIWGQGTMVTVSS
VL: B2 VL with M4L, S51A, R91L, L92N, F94W, F96P

- Kd: 26.8 nM
B5: BIIB-12-1297 (antibody, V domains shown)
VH: QVQLVESGGGVVQPGRSLRLSCAASGFTFSSYGMHWVRQAPGKGLEWVAVISYDGSNKYYADSVKGRFTISRDNSKNTLYLQMNSLRAEDTAVYYCARSGGQTHRRSMDVWGQGTTVTVSS
VL: B2 VL with M4L, S31R, S51A, R91G, L92N, F94W, F96P

- Kd: 46.1 nM
B7: BIIB-12-1310 (antibody, V domains shown)
VH: EVQLVESGGGLVKPGGSLRLSCAASGFTFSSYSMNWVRQAPGKGLEWVSSISSSSSYIYYADSVKGRFTISRDNAKNSLYLQMNSLRAEDTAVYYCARLGGYGSSQRYFDLWGRGTLVTVSS
VL: B2 VL with M4L, S31R, S51A, Q89E, R91A, L92S, F94W, F96P

- Kd: 17.8 nM
B8: BIIB-12-1325 (antibody, V domains shown)
VH: QVQLVQSGAEVKKPGASVKVSCKASGYTFTSYYMVWVRQAPGQGLEWMGIINPSGGSTSYAQKFQGRVTMTRDTSTSTVYMELSSLRSEDTAVYYCARGGRYMLDPWGQGTLVTVSS
VL: DIQMTQSPSTLSASVGDRVTITCRASQSISSWLAWYQQKPGKAPKLLIYKASSLESGVPSRFSGSGSGTEFTLTISSLQPDDFATYYCQQSNRYPRTFGGGTKVEIK

- Kd: 53.2 nM
B10: BIIB-12-1315 (antibody, V domains shown)
VH: QVQLVQSGAEVKKPGASVKVSCKASGYTFTSYYMVWVRQAPGQGLEWMGIINPSGGSTSYAQKFQGRVTMTRDTSTSTVYMELSSLRSEDTAVYYCARGRPSSKRVTYFDYWGQGTLVTVSS
VL: EIVMTQSPATLSVSPGERATLSCRASQSVSSNLAWYQQKPGQAPRLLIYGASTRATGIPARFSGSGSGTEFTLTISSLQSEDFAVYYCQQVFNWPPWTFGGGTKVEIK

- Kd: 31 nM
B13: BIIB-12-1319 (antibody, V domains shown)
VH: QVQLVESGGGVVQPGRSLRLSCAASGFTFSSYGMHWVRQAPGKGLEWVAVISYDGSNKYYADSVKGRFTISRDNSKNTLYLQMNSLRAEDTAVYYCARTGYHRSVYYWGQGTLVTVSS
VL: EIVMTQSPATLSVSPGERATLSCRASQSVSSNLAWYQQKPGQAPRLLIYGASTRATGIPARFSGSGSGTEFTLTISSLQSEDFAVYYCQQASNFPPTFGGGTKVEI

- Kd: 67.7 nM
B14: BIIB-12-1324 (antibody, V domains shown)
VH: QVQLVQSGAEVKKPGASVKVSCKASGYTFTSYYMVWVRQAPGQGLEWMGIINPSGGSTSYAQKFQGRVTMTRDTSTSTVYMELSSLRSEDTAVYYCARLPRYSKRGLDVWGQGTMVTVSS
VL: EIVMTQSPATLSLSPGERATLSCRASQSVSSYLAWYQQKPGQAPRLLIYDSSNRATGIPARFSGSGSGTDFTLTISSLEPEDFAVYYCQQLVSWPTFGGGTKVEIK

- Kd: 38.8 nM
B15: BIIB-12-935 (antibody, V domains shown)
VH: QVQLVESGGGVVQPGRSLRLSCAASGFTFSSYGMHWVRQAPGKGLEWVAVISYDGSNKYYADSVKGRFTISRDNSKNTLYLQMNSLRAEDTAVYYCARELEYGHYGMDVWGQGTTVTVSS
VL: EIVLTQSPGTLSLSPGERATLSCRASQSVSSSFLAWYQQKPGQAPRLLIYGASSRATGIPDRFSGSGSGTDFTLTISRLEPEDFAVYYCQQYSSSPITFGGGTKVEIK

- Kd: 27.1 nM
B18: BIIB-12-1317 (antibody, V domains shown)
VH: QVQLVESGGGVVQPGRSLRLSCAASGFTFSSYGMHWVRQAPGKGLEWVAVISYDGSNKYYADSVKGRFTISRDNSKNTLYLQMNSLRAEDTAVYYCARGVGGHDTRWGQGTLVTVSS
VL: DIQMTQSPSSVSASVGDRVTITCRASQGISSWLAWYQQKPGKAPKLLIYAASSLQSGVPSRFSGSGSGTDFTLTISSLQPEDFATYYCQQRHSLPPTFGGGTKVEIK

Continued, binder first:

B1: BIIB-12-899 (antibody, V domains shown)
VH: QVQLVQSGAEVKKPGASVKVSCKASGYTFTSYYMHWVRQAPGQGLEWMGIINPSGGSTSYAQKFQGRVTMTRDTSTSTVYMELSSLRSEDTAVYYCARGPRTSSPLYFDLWGRGTLVTVSS
VL: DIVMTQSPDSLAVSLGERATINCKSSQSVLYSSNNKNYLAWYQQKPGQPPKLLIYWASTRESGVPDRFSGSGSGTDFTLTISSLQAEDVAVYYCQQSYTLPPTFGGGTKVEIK
- Kd: 34.2 nM

B4: BIIB-12-892 (antibody, V domains shown)
VH: B2 VH with I34M, D99G, P100L, Q104T, S105P, S106T, G107A, Y110I, L116M
VL: B2 VL with M4L, S51A, F94L, F96L
- Kd: 33.2 nM

B6: BIIB-12-891 (antibody, V domains shown)
VH: B2 VH with D99A, P100S, G101I, R102Y, Q104G, S105L, S106G, G107A, Y110I, L116M
VL: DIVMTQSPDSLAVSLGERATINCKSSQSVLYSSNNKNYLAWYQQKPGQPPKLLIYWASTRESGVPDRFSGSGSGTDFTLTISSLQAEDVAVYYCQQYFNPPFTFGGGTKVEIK
- Kd: 65.2 nM

B9: BIIB-12-914 (antibody, V domains shown)
VH: QVQLVQSGAEVKKPGASVKVSCKASGYTFTSYYMHWVRQAPGQGLEWMGIINPSGGSTSYAQKFQGRVTMTRDTSTSTVYMELSSLRSEDTAVYYCARAPRYRGTMDVWGQGTTVTVSS
VL: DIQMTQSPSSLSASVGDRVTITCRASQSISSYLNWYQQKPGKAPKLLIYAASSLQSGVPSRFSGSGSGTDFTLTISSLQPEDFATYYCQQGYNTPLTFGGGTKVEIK
- Kd: 48.1 nM

B11: BIIB-12-913 (antibody, V domains shown)
VH: QVQLVQSGAEVKKPGASVKVSCKASGYTFTSYGISWVRQAPGQGLEWMGWISAYNGNTNYAQKLQGRVTMTTDTSTSTAYMELRSLRSDDTAVYYCARGGVSRFWGQGTLVTVSS
VL: B10 VL with V91Y, F92A, N93P, W94Y, W97L
- Kd: 78.5 nM

B12: BIIB-12-909 (antibody, V domains shown)
VH: QVQLVESGGGVVQPGRSLRLSCAASGFTFSSYGMHWVRQAPGKGLEWVAVISYDGSNKYYADSVKGRFTISRDNSKNTLYLQMNSLRAEDTAVYYCAKGKHRRRSFDIWGQGTMVTVSS
VL: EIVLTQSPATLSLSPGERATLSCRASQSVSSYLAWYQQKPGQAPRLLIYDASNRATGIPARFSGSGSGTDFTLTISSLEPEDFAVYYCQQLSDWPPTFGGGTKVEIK
- Kd: 69.7 nM

B16: BIIB-12-917 (antibody, V domains shown)
VH: EVQLVQSGAEVKKPGESLKISCKGSGYSFTTYWIGWVRQMPGKGLEWMGIIYPGDSDTRYSPSFQGQVTISADKSISTAYLQWSSLKASDTAMYYCARGRFRPRGRFDYWGQGTLVTVSS
VL: EIVMTQSPATLSVSPGERATLSCRASQSVSSNLAWYQQKPGQAPRLLIYGASTRATGIPARFSGSGSGTEFTLTISSLQSEDFAVYYCQQLFNHPPTFGGGTKVEIK
- Kd: 31.5 nM

B17: BIIB-12-921 (antibody, V domains shown)
VH: QVQLVESGGGVVQPGRSLRLSCAASGFTFSSYGMHWVRQAPGKGLEWVAVISYDGSNKYYADSVKGRFTISRDNSKNTLYLQMNSLRAEDTAVYYCAKVGDRGTRAFDPWGQGTLVTVSS
VL: B18 VL with S31R, R91G, H92N, S93V, L94F, P96L
- Kd: 23.1 nM
